Source: publication PMC2710861

Key:
[1] = biological target: T1, Rad52 (human, UniProt P43351 1-418); test: EMSA
T1 sequence: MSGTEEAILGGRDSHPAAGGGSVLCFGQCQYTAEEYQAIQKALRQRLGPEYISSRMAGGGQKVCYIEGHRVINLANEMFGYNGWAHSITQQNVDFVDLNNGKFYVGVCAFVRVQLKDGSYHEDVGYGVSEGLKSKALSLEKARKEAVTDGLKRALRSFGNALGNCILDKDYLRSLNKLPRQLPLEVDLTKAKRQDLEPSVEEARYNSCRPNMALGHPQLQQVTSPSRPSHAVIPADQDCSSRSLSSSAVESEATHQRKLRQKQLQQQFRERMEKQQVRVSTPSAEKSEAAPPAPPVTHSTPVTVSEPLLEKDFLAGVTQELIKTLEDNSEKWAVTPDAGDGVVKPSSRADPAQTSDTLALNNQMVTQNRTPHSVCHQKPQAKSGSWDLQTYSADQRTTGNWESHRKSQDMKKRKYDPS

[2] = biological target: T1, Rad52; test: SEC-MALS
[3] = biological target: RPA heterotrimer (RPA70/RPA32/RPA14);Rad52 (human;human, UniProt P27694;P15927;P35244;P43351 1-616;1-270;1-121;1-418, |); test: SEC-MALS and UV cross-linking
[4] = biological target: T1, Rad52; test: UV cross-linking
[5] = biological target: RPA heterotrimer (RPA70/RPA32/RPA14) (human, UniProt P27694;P15927;P35244 1-616;1-270;1-121); test: EMSA
Chain of RPA heterotrimer (RPA70/RPA32/RPA14) (P27694 whole entry, chain 1 of 3): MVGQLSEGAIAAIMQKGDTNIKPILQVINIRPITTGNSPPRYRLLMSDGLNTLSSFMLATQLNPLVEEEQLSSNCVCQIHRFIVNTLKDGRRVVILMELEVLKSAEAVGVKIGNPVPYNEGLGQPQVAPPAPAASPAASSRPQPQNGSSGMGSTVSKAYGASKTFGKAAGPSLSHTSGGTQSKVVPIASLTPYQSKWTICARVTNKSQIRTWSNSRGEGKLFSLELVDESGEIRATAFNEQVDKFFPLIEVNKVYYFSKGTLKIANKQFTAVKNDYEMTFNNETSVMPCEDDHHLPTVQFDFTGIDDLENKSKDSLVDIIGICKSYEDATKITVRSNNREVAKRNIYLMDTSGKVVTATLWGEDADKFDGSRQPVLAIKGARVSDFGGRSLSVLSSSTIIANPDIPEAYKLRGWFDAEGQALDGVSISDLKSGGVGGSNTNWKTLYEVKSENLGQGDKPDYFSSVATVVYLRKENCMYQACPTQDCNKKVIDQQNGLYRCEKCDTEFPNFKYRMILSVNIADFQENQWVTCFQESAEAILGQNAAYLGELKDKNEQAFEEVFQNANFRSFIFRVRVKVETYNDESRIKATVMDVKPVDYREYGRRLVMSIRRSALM
Chain of RPA heterotrimer (RPA70/RPA32/RPA14) (P15927 whole entry, chain 2 of 3): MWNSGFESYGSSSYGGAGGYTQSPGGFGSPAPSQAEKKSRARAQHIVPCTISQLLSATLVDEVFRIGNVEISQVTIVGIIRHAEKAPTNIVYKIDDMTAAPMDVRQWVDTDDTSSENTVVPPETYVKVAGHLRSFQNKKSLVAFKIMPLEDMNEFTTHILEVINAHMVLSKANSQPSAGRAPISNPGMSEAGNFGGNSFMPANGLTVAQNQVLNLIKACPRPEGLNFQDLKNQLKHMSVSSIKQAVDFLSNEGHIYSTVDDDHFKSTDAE
Chain of RPA heterotrimer (RPA70/RPA32/RPA14) (P35244 whole entry, chain 3 of 3): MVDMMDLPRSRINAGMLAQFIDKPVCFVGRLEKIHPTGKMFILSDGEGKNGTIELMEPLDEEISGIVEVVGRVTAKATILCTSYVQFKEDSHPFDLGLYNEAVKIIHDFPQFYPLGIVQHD

Chain of RPA heterotrimer (RPA70/RPA32/RPA14);Rad52 (P27694 whole entry, chain 1 of 3): as the sequence (P27694 whole entry, chain 1 of 3) above
Chain of RPA heterotrimer (RPA70/RPA32/RPA14);Rad52 (P15927 whole entry, chain 2 of 3): as the sequence (P15927 whole entry, chain 2 of 3) above
Chain of RPA heterotrimer (RPA70/RPA32/RPA14);Rad52 (P35244 whole entry, chain 3 of 3): as the sequence (P35244 whole entry, chain 3 of 3) above

Binder: GCTAGCTCAATTCATCGACAAACCT (ssDNA) [25-mer mixed sequence ssDNA, 5'-biotin]
- binding result [1]: binds

Binder: GCTAGCTCAATTCATCGACAAACCTCCTCGCTCAATTCATAGTC (ssDNA) [44-mer mixed sequence ssDNA]
- binding result [2]: binds

Binder: GCTAGCTCAATTCATCGACAAACCT (ssDNA) [25-mer mixed sequence ssDNA, 3'-biotin]
- binding result [3]: binds
- binding result [4]: binds
- binding result [5]: binds
